The record followed here is publication PMC9440123, “Rtt105 regulates RPA function by configurationally stapling the flexible domains” (Nature Communications, 2022).

To fix the notation:
B3: Regulator of Ty1 Transposition 105 (Rtt105) (natural protein, S. cerevisiae, UniProt P40063 1-208, looked up)
chain: MYSNHNLNSDDCCFDWNEEKAAELQRTGVSFDRSLTPQSLRTSTRRLSEENKQQSGTMHIDTSPSVVSDIISSRRDRSQDFFGPHSSSPIAPSERQRADQRSRLESMRLTRRRDKMTKVRGGLEKMEEMIMQGEHLREMQRLKQEAQKNALPSDMAEYMEWQNNEDLEDDELLAFIEKQETYKNELEHFLNNANKNVYENNSYPNSHT
notes: Rtt105, S. cerevisiae, a 24 kDa protein; RSF-Duet1 plasmid; also called Rtt105^WT; unlabeled Rtt105

Data set [1] has as its target RPA (RPA70/RPA32/RPA14);Rtt105 (Saccharomyces cerevisiae;Saccharomyces …, UniProt P22336;P26754;P26755;P40063 1-621;1-273;1-122;1-208, |). Put plainly: EMSA; Rtt105 premixed 1:1; 5 mM MgCl2; stoichiometric, apparent Kd; EMSA: 25 mM Tris-Cl pH 7.5, 200 mM NaCl, 5 mM MgCl2, 5% glycerol, 0.05% Tween-20, 25 C; anisotropy/FRET: 30 mM HEPES pH 7.8, 100 mM KCl, 6% glycerol, 5 mM MgCl2, 1 mM bME, 23 C (stopped flow 25 C). The note with it: protein: recombinant;recombinant; tags: ;; copies: 1;1;1;1; label: 5'-Cy5. For orientation: Mobility shift assays separate free from complexed probe on a gel.

Data set [2] has as its target T1, RPA (RPA70/RPA32/RPA14) (Saccharomyces cerevisiae, UniProt P22336;P26754;P26755 1-621;1-273;1-122). Put plainly: EMSA; no Rtt105; 5 mM MgCl2; stoichiometric, apparent Kd; EMSA: 25 mM Tris-Cl pH 7.5, 200 mM NaCl, 5 mM MgCl2, 5% glycerol, 0.05% Tween-20, 25 C; anisotropy/FRET: 30 mM HEPES pH 7.8, 100 mM KCl, 6% glycerol, 5 mM MgCl2, 1 mM bME, 23 C (stopped flow 25 C). The note with it: protein: recombinant; copies: 1;1;1; label: 5'-Cy5.
Target sequence in this assay (P22336 whole entry, chain 1 of 3): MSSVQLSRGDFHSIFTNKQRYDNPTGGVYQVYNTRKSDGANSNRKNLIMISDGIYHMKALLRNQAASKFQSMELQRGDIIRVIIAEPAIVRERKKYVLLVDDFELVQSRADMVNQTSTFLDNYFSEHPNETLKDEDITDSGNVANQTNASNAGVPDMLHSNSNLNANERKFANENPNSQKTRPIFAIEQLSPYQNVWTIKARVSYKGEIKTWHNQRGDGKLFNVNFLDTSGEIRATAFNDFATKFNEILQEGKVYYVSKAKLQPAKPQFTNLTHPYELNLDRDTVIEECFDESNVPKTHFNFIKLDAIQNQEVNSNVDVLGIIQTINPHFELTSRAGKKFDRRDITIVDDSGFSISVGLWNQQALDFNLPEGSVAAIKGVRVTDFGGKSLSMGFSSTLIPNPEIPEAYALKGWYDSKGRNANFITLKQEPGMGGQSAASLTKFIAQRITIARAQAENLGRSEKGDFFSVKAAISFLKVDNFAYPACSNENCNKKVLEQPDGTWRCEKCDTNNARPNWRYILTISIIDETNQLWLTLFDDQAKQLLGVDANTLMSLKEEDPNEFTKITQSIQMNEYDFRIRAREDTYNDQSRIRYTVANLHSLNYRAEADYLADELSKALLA
Target sequence in this assay (P26754 whole entry, chain 2 of 3): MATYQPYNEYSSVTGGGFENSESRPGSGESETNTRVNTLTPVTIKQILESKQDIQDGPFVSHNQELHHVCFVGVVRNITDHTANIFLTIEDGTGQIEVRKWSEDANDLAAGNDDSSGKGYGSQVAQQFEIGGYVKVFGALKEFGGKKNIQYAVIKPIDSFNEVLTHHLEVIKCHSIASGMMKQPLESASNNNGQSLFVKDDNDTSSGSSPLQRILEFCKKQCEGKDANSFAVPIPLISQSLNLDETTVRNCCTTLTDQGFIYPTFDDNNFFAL
Target sequence in this assay (P26755 whole entry, chain 3 of 3): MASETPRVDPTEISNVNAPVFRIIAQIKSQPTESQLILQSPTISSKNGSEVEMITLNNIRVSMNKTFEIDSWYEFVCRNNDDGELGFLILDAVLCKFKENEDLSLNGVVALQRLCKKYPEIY

The target in data set [3] is B3. Kind of data set: other fluorescence titration; MB543 fluorescence quenching; 200 nM fluorescent RPA or F-A-B in the cuvette, unlabeled Rtt105 added stepwise; 23 °C; 30 mM HEPES pH 7.8, 100 mM KCl, 6% glycerol, 5 mM MgCl2, 1 mM βME; quadratic fit, apparent KD. The note with it: both partners purified.
Data set [4] deals with RPA-DBD-A^MB543 (S. cerevisiae) (UniProt P22336). The description is as above.
Data set [5] addresses T2, Replication Protein A (RPA), S. cerevisiae heterotrimer of RPA70, RPA32 and RPA14 (S. cerevisiae, UniProt P22336 1-621; P26754 1-273; P26755 1-122).
T2 construct: RPA70 (Rfa1), large subunit of S. cerevisiae RPA; holds OB-F, DBD-A, DBD-B and DBD-C; RPA32 (Rfa2), middle subunit of S. cerevisiae RPA; holds DBD-D and the winged-helix domain; RPA14 (Rfa3), small subunit of S. cerevisiae RPA; holds OB-E; also called yeast RPA; unlabeled RPA; copies: + +
Put plainly: cross-linking; BS3 (5 mM) cross-linking of RPA with Rtt105 in 30 mM HEPES, 200 mM KCl, pH 7.8; SDS-PAGE shift and mass spectrometry of cross-linked peptides (XL-MS). The note with it: both partners purified.

The next data set addresses RPA-DBD-A-Cy5;Rtt105 (Saccharomyces cerevisiae;Saccharomyces …, UniProt P22336;P26754;P26755;P40063 1-621;1-273;1-122;1-208, |). Kind of data set: stopped-flow FRET; with Rtt105; kobs1 15, kobs2 1.9 s-1; EMSA: 25 mM Tris-Cl pH 7.5, 200 mM NaCl, 5 mM MgCl2, 5% glycerol, 0.05% Tween-20, 25 C; anisotropy/FRET: 30 mM HEPES pH 7.8, 100 mM KCl, 6% glycerol, 5 mM MgCl2, 1 mM bME, 23 C (stopped flow 25 C). The note with it: protein: recombinant;recombinant; tags: Cy5 on DBD-A via 4AZP;; copies: 1;1;1;1; label: 5'-Cy3.

The target of a further data set is RPA-DBD-A-Cy5 (Saccharomyces cerevisiae, UniProt P22336;P26754;P26755 1-621;1-273;1-122). Put plainly: stopped-flow FRET; no Rtt105; kobs1 18.2, kobs2 2.7 s-1; EMSA: 25 mM Tris-Cl pH 7.5, 200 mM NaCl, 5 mM MgCl2, 5% glycerol, 0.05% Tween-20, 25 C; anisotropy/FRET: 30 mM HEPES pH 7.8, 100 mM KCl, 6% glycerol, 5 mM MgCl2, 1 mM bME, 23 C (stopped flow 25 C). The note with it: protein: recombinant; tags: Cy5 on DBD-A via 4AZP; copies: 1;1;1; label: 5'-Cy3.
Sequence of RPA-DBD-A-Cy5 (P26754 whole entry, chain 2 of 2): as the sequence (P26754 whole entry, chain 2 of 3) above
Sequence of RPA-DBD-A-Cy5 (P26755 whole entry, chain 3 of 2): as the sequence (P26755 whole entry, chain 3 of 3) above

The target of the next data set is RPA-DBD-D-Cy5 (Saccharomyces cerevisiae, UniProt P22336;P26754;P26755 1-621;1-273;1-122). Put plainly: stopped-flow FRET; no Rtt105; kobs1 100.3, kobs2 16, kobs3 1.4 s-1; EMSA: 25 mM Tris-Cl pH 7.5, 200 mM NaCl, 5 mM MgCl2, 5% glycerol, 0.05% Tween-20, 25 C; anisotropy/FRET: 30 mM HEPES pH 7.8, 100 mM KCl, 6% glycerol, 5 mM MgCl2, 1 mM bME, 23 C (stopped flow 25 C). The note with it: protein: recombinant; tags: Cy5 on DBD-D via 4AZP; copies: 1;1;1; label: 3'-Cy3.
Sequence of RPA-DBD-D-Cy5 (P26754 whole entry, chain 2 of 2): as the sequence (P26754 whole entry, chain 2 of 3) above
Sequence of RPA-DBD-D-Cy5 (P26755 whole entry, chain 3 of 2): as the sequence (P26755 whole entry, chain 3 of 3) above

The target in another data set is RPA-DBD-D-Cy5;Rtt105 (Saccharomyces cerevisiae;Saccharomyces …, UniProt P22336;P26754;P26755;P40063 1-621;1-273;1-122;1-208, |). Kind of data set: stopped-flow FRET; with Rtt105; kobs1 0.5, kobs2 48, kobs3 3.6 s-1; EMSA: 25 mM Tris-Cl pH 7.5, 200 mM NaCl, 5 mM MgCl2, 5% glycerol, 0.05% Tween-20, 25 C; anisotropy/FRET: 30 mM HEPES pH 7.8, 100 mM KCl, 6% glycerol, 5 mM MgCl2, 1 mM bME, 23 C (stopped flow 25 C). The note with it: protein: recombinant;recombinant; tags: Cy5 on DBD-D via 4AZP;; copies: 1;1;1;1; label: 3'-Cy3.
Sequence of RPA-DBD-D-Cy5;Rtt105 (P26754 whole entry, chain 2 of 2): as the sequence (P26754 whole entry, chain 2 of 3) above
Sequence of RPA-DBD-D-Cy5;Rtt105 (P26755 whole entry, chain 3 of 2): as the sequence (P26755 whole entry, chain 3 of 3) above

Data set [6] deals with T1, RPA (RPA70/RPA32/RPA14). Put plainly: competition; facilitated exchange: excess free RPA displaces prebound labeled RPA; EMSA: 25 mM Tris-Cl pH 7.5, 200 mM NaCl, 5 mM MgCl2, 5% glycerol, 0.05% Tween-20, 25 C; anisotropy/FRET: 30 mM HEPES pH 7.8, 100 mM KCl, 6% glycerol, 5 mM MgCl2, 1 mM bME, 23 C (stopped flow 25 C). The note with it: protein: recombinant; copies: 1;1;1.
Target sequence in this assay (P26754 whole entry, chain 2 of 2): as the sequence (P26754 whole entry, chain 2 of 3) above
Target sequence in this assay (P26755 whole entry, chain 3 of 2): as the sequence (P26755 whole entry, chain 3 of 3) above

The target of the next data set is hRPA (human, UniProt P27694;P15927;P35244 1-616;1-270;1-121). Kind of data set: fluorescence anisotropy; 20 nM DNA; stoichiometric; no RPAIN; EMSA: 25 mM Tris-Cl pH 7.5, 200 mM NaCl, 5 mM MgCl2, 5% glycerol, 0.05% Tween-20, 25 C; anisotropy/FRET: 30 mM HEPES pH 7.8, 100 mM KCl, 6% glycerol, 5 mM MgCl2, 1 mM bME, 23 C (stopped flow 25 C). The note with it: protein: recombinant; copies: 1;1;1; label: 5'-FAM. For orientation: Fluorescence polarisation rises when a labelled molecule tumbles more slowly, as on binding a larger partner.
Sequence of hRPA (P27694 whole entry, chain 1 of 3): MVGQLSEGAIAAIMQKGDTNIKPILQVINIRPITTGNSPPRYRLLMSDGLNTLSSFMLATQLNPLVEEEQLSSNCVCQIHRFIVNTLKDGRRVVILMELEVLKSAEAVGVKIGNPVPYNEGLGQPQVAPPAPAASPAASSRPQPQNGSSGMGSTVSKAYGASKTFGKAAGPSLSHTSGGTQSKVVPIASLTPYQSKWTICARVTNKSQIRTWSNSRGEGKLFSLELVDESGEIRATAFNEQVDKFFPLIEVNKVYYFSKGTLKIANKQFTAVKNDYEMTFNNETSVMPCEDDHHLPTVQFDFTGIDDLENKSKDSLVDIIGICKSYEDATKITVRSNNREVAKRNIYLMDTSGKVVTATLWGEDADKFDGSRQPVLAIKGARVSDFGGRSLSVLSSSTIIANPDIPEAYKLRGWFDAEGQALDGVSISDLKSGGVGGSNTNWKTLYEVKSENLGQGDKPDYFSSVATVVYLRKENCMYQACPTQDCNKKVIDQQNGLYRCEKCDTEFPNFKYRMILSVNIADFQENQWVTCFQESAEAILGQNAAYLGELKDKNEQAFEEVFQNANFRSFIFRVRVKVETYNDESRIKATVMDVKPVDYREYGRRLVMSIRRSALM
Sequence of hRPA (P15927 whole entry, chain 2 of 3): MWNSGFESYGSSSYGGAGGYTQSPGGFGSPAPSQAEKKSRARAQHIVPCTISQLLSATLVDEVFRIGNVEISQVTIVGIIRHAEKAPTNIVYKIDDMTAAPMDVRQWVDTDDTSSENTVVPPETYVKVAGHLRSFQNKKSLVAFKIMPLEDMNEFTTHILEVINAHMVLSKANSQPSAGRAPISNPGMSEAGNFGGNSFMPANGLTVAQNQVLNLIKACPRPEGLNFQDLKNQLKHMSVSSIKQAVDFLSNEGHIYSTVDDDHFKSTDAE
Sequence of hRPA (P35244 whole entry, chain 3 of 3): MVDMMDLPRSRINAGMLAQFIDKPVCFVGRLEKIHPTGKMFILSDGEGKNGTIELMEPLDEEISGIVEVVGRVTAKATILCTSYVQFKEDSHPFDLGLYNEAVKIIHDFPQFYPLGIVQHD

Another data set deals with hRPA;RPAIN (human;human, UniProt P27694;P15927;P35244;Q86UA6 1-616;1-270;1-121;1-219, |). Kind of data set: fluorescence anisotropy; 20 nM DNA; stoichiometric; hRPA:RPAIN 1:2; EMSA: 25 mM Tris-Cl pH 7.5, 200 mM NaCl, 5 mM MgCl2, 5% glycerol, 0.05% Tween-20, 25 C; anisotropy/FRET: 30 mM HEPES pH 7.8, 100 mM KCl, 6% glycerol, 5 mM MgCl2, 1 mM bME, 23 C (stopped flow 25 C). The note with it: protein: recombinant;recombinant; tags: ;N-terminal SUMO tag removed; copies: 1;1;1;2; label: 5'-FAM.
Sequence of hRPA;RPAIN (P27694 whole entry, chain 1 of 4): as the sequence (P27694 whole entry, chain 1 of 3) above
Sequence of hRPA;RPAIN (P15927 whole entry, chain 2 of 4): as the sequence (P15927 whole entry, chain 2 of 3) above
Sequence of hRPA;RPAIN (P35244 whole entry, chain 3 of 4): as the sequence (P35244 whole entry, chain 3 of 3) above
Sequence of hRPA;RPAIN (Q86UA6 whole entry, chain 4 of 4): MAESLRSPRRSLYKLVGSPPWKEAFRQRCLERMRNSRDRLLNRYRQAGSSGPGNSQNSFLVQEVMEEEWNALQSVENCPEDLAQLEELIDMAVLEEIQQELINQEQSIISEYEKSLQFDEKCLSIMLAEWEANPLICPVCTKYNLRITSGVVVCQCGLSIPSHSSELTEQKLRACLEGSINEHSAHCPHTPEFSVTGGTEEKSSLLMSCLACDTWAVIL

The target of data set [7] is RPA-DBD-D^MB543 (S. cerevisiae) (UniProt P22336). Put plainly: optical tweezers with confocal fluorescence (C-trap); Rtt105^Cy5-RPA premixed 1:1, incubated with stretched lambda ssDNA, then moved to a buffer channel; 30 mM HEPES pH 7.8, 100 mM KCl, 6% glycerol, 5 mM MgCl2.
Data set [8] concerns the target RPA-DBD-D^Cy3 (S. cerevisiae) (UniProt P22336). Put plainly: FRET or BRET; stopped-flow FRET, Cy3 excited at 535 nm, Cy5 emission; 100 nM each of RPA^Cy3 and Rtt105^Cy5; 25 °C; RPA reaction buffer; no DNA. (In general: In BRET a luciferase serves as donor, and the signal depends on an acceptor being close.)
Data set [9] deals with RPA-DBD-A^Cy3 (S. cerevisiae) (UniProt P22336). Described as above.
Data set [10] has as its target T2, Replication Protein A (RPA), S. …. Kind of data set: AUC; sedimentation velocity as a14; Rtt105^Cy5, RPA and Rad52 mixed in equimolar concentrations, no ssDNA; 280 nm and 650 nm. The note with it: both partners purified.

T2 sequence (P26754 whole entry, chain 2 of 2, the tested form may be a part): as the sequence (P26754 whole entry, chain 2 of 3) above
T2 sequence (P26755 whole entry, chain 3 of 2, the tested form may be a part): as the sequence (P26755 whole entry, chain 3 of 3) above
Sequence of RPA (RPA70/RPA32/RPA14);Rtt105 (P22336 whole entry, chain 1 of 4, one chain of several): as the sequence (P22336 whole entry, chain 1 of 3) above
Sequence of RPA (RPA70/RPA32/RPA14);Rtt105 (P26754 whole entry, chain 2 of 4, one chain of several): as the sequence (P26754 whole entry, chain 2 of 3) above
Sequence of RPA (RPA70/RPA32/RPA14);Rtt105 (P26755 whole entry, chain 3 of 4, one chain of several): as the sequence (P26755 whole entry, chain 3 of 3) above
Sequence of RPA-DBD-A-Cy5;Rtt105 (P26754 whole entry, chain 2 of 2): as the sequence (P26754 whole entry, chain 2 of 3) above
Sequence of RPA-DBD-A-Cy5;Rtt105 (P26755 whole entry, chain 3 of 2): as the sequence (P26755 whole entry, chain 3 of 3) above

B1: 5'-Cy5-(dT)30 (ssDNA)
DNA: TTTTTTTTTTTTTTTTTTTTTTTTTTTTTT
In the case of B1, the Kd in data set [1] was found to be 5.7 ± 1.2 nM; with RPA (RPA70/RPA32/RPA14) [2], 5 ± 0.7 nM.

B2: F-A-B-DBD-A^MB543 (domain or fragment)
chain: MSSVQLSRGDFHSIFTNKQRYDNPTGGVYQVYNTRKSDGANSNRKNLIMISDGIYHMKALLRNQAASKFQSMELQRGDIIRVIIAEPAIVRERKKYVLLVDDFELVQSRADMVNQTSTFLDNYFSEHPNETLKDEDITDSGNVANQTNASNAGVPDMLHSNSNLNANERKFANENPNSQKTRPIFAIEQLSPYQNVWTIKARVSYKGEIKTWHNQRGDGKLFNVNFLDTSGEIRATAFNDFATKFNEILQEGKVYYVSKAKLQPAKPQFTNLTHPYELNLDRDTVIEECFDESNVPKTHFNFIKLDAIQNQEVNSNVDVLGIIQTINPHFELTSRAGKKFDRRDITIVDDSGFSISVGLWNQQALDFNLPEGSVAAIKGVRVTDFGGKSLSMGFSSTLIPNPEIPEAYALKGWYDSKGRNANFITL
modifications: 4-azidophenylalanine (4AZP) in DBD-A carrying the MB543 fluorophore; position not given
Consider B2, for which the Kd in [3] was determined as 33.9 nM.

For B3, the Kd in [4] amounted to 61.1 nM. Also, in data set [5], the binding result was “binds”.

B4: 5'-Cy3-(dT)40 (ssDNA)
DNA: TTTTTTTTTTTTTTTTTTTTTTTTTTTTTTTTTTTTTTTT
Take B4: the binding result with RPA-DBD-A-Cy5;Rtt105 and in the data set with RPA-DBD-A-Cy5 was “binds” each time.

B5: 3'-Cy3-(dT)40 (ssDNA)
DNA: TTTTTTTTTTTTTTTTTTTTTTTTTTTTTTTTTTTTTTTT
On to B5, for which the binding result in the data set with RPA-DBD-D-Cy5 and in the data set with RPA-DBD-D-Cy5;Rtt105 was “binds” in each case.

B6: (dT)97 (ssDNA)
DNA: TTTTTTTTTTTTTTTTTTTTTTTTTTTTTTTTTTTTTTTTTTTTTTTTTTTTTTTTTTTTTTTTTTTTTTTTTTTTTTTTTTTTTTTTTTTTTTTTT
B6: the binding result with RPA (RPA70/RPA32/RPA14) [6] is “binds”.

B7: 5'-FAM-(dT)25 (ssDNA)
DNA: TTTTTTTTTTTTTTTTTTTTTTTTT
In the case of B7, the binding result with hRPA and in the data set with hRPA;RPAIN was “binds” throughout.

B8: Rtt105^Cy5 (Rtt105^C13S labeled with Cy5 on Cys-12) (natural protein, S. cerevisiae, UniProt P40063 1-208, looked up)
chain: MYSNHNLNSDDCSFDWNEEKAAELQRTGVSFDRSLTPQSLRTSTRRLSEENKQQSGTMHIDTSPSVVSDIISSRRDRSQDFFGPHSSSPIAPSERQRADQRSRLESMRLTRRRDKMTKVRGGLEKMEEMIMQGEHLREMQRLKQEAQKNALPSDMAEYMEWQNNEDLEDDELLAFIEKQETYKNELEHFLNNANKNVYENNSYPNSHT
modifications: Cy5 (maleimide chemistry) on Cys-12
notes: Rtt105, S. cerevisiae, single-Cys version; also called Cy5-labeled Rtt105; fluorescent Rtt105; source: E. coli, purified similar to the wild-type protein, labeled with Cy5-maleimide
In [7], B8 showed a t1/2 of dissociation from RPA on ssDNA of 5 s. In [8], the kobs,1 (two-step model) was found to be 3.5 s⁻¹ and the kobs,2 (two-step model) came out at 0.2 s⁻¹. For the same molecule, the kobs (single-step model) in [9] was 0.2 s⁻¹. Besides, the binding result in data set [10] is “binds”.
